Laboratory results taken from paper PMC3900686, “Mechanisms of the Scaffold Subunit in Facilitating Protein Phosphatase 2A Methylation” (PLoS ONE, 2014).
Blank lines part the entries; values can stand above or below the binder they belong to.

Tests used:
[1] = molecular target: T1, PP2A catalytic Cα-subunit (free PP2Ac) ( ("mammalian PP2Ac"), UniProt P67775 1-309); experiment: pull-down; core enzymes assembled on the maltose resin with the immobilized MBP-tagged truncated A-subunits; conditions: both partners purified
T1 construct: PP2A Cα-subunit (PP2Ac); negligible methylation as purified; also called C-subunit; full-length PP2Ac

[2] = molecular target: the molecule itself; experiment: SEC; gel filtration chromatography of wild type and mutant A-subunits
[3] = molecular target: T2, PP2A scaffold Aα-subunit (full-length A-subunit) (UniProt P30153 1-589); experiment: assembly and purification of the core enzyme; stable PP2A core enzyme assembled from A-subunit and PP2Ac and purified as previously described [17]; conditions: both partners purified
T2 construct: PP2A scaffold Aα-subunit, 15 HEAT repeats; called the full-length A-subunit; the methods say that residues 9–54 were retained in all constructs, and the FRET fusion is Aα (9–589); The true N-terminal limit may be residue 9; also called scaffold subunit

[4] = molecular target: PP2A core enzyme with the A-subunit mutant A_R258E ( |  ("mammalian …, UniProt P30153 1-589; P67775 1-309, A_R258E); experiment: cell-based or functional assay
[5] = molecular target: PP2A core enzyme with the A-subunit mutant A_R183E ( |  ("mammalian …, UniProt P30153 1-589; P67775 1-309, A_R183E); experiment: cell-based or functional assay
[6] = molecular target: T1, PP2A catalytic Cα-subunit (free PP2Ac); experiment: ITC; 200 µM LCMT-1 (pre-loaded with SAH) titrated to 20 µM PP2A; 25°C; 20 mM Tris pH 7.5, 50 mM NaCl, 50 µM MnCl2; VP-ITC; conditions: both partners purified

B3: A-subunit mutant A_D61A/E62K/E100A/E101K (natural protein, UniProt P30153 1-589, looked up)
chain: MAAADGDDSLYPIAVLIDELRNEDVQLRLNSIKKLSTIALALGVERTRSELLPFLTDTIYAKDEVLLALAEQLGTFTTLVGGPEYVHCLLPPLESLATVAKTVVRDKAVESLRAISHEHSPSDLEAHFVPLVKRLAGGDWFTSRTSACGLFSVCYPRVSSAVKAELRQYFRNLCSDDTPMVRRAAASKLGEFAKVLELDNVKSEIIPMFSNLASDEQDSVRLLAVEACVNIAQLLPQEDLEALVMPTLRQAAEDKSWRVRYMVADKFTELQKAVGPEITKTDLVPAFQNLMKDCEAEVRAAASHKVKEFCENLSADCRENVIMSQILPCIKELVSDANQHVKSALASVIMGLSPILGKDNTIEHLLPLFLAQLKDECPEVRLNIISNLDCVNEVIGIRQLSQSLLPAIVELAEDAKWRVRLAIIEYMPLLAGQLGVEFFDEKLNSLCMAWLVDHVYAIREAATSNLKKLVEKFGKEWAHATIIPKVLAMSGDPNYLHRMTTLFCINVLSEVCGQDITTKHMLPTVLRMAGDPVANVRFNVAKSLQKIGPILDNSTLQSEVKPILEKLTQDQDVDVKYFAQEALTVLSLA
notes: PP2A scaffold Aα-subunit, multiple mutant D61A/E62K/E100A/E101K; Probably made as the wild-type A-subunit
- binding result [2]: binds

B5: PP2A-specific leucine carboxyl methyltransferase 1 (LCMT-1) (enzyme, human, UniProt Q9UIC8 1-334, looked up)
chain: MATRQRESSITSCCSTSSCDADDEGVRGTCEDASLCKRFAVSIGYWHDPYIQHFVRLSKERKAPEINRGYFARVHGVSQLIKAFLRKTECHCQIVNLGAGMDTTFWRLKDEDLLPSKYFEVDFPMIVTRKLHSIKCKPPLSSPILELHSEDTLQMDGHILDSKRYAVIGADLRDLSELEEKLKKCNMNTQLPTLLIAECVLVYMTPEQSANLLKWAANSFERAMFINYEQVNMGDRFGQIMIENLRRRQCDLAGVETCKSLESQKERLLSNGWETASAVDMMELYNRLPRAEVSRIESLEFLDEMELLEQLMRHYCLCWATKGGNELGLKEITY
notes: human LCMT-1, cloned into pET15b; For ITC it was pre-loaded with SAH (0.5 mM, 10 min, 37°C)
- Km of methylation of the PP2A core enzyme by LCMT-1 (3H-SAM), fold increase against the wild-type core enzyme [4]: 2 fold
- Km of methylation of the PP2A core enzyme by LCMT-1 (3H-SAM), fold increase against the wild-type core enzyme [5]: 1.5 fold
- fold reduction of binding affinity against the core enzyme [6]: ~4 fold
- stoichiometry N [6]: < 1

Second part, the binder after the results:

- binding result [1]: binds
B1: A-subunit mutant missing HEAT repeats 2–10 (AΔHR2–10, mini-A) (domain or fragment, UniProt P30153 9-589, looked up)
chain: SLYPIAVLIDELRNEDVQLRLNSIKKLSTIALALGVERTRSELLPFIVELAEDAKWRVRLAIIEYMPLLAGQLGVEYFDEKLNSLCMAWLVDHVYAIREAATSNLKKLVEKFGKEWAHATIIPKVLAMSGDPNYLHRMTTLFCINVLSEVCGQDITTKHMLPTVLRMAGDPVANVRFNVAKSLQKIGPILDNSTLQSEVKPILEKLTQDQDVDVKYFAQEALTVLSLA
notes: the FRET fusion is Aα (9–589); source: E. coli DH5α, MBP-tagged, immobilised on maltose resin

- binding result [1]: binds
B2: A-subunit mutant missing HEAT repeats 2–8 (AΔHR2–8) (domain or fragment, UniProt P30153 9-589, looked up)
chain: SLYPIAVLIDELRNEDVQLRLNSIKKLSTIALALGVERTRSELLPFIKELVSDANQHVKSALASVIMGLSPILGKDNTIEHLLPLFLAQLKDECPEVRLNIISNLDCVNEVIGIRQLSQSLLPAIVELAEDAKWRVRLAIIEYMPLLAGQLGVEFFDEKLNSLCMAWLVDHVYAIREAATSNLKKLVEKFGKEWAHATIIPKVLAMSGDPNYLHRMTTLFCINVLSEVCGQDITTKHMLPTVLRMAGDPVANVRFNVAKSLQKIGPILDNSTLQSEVKPILEKLTQDQDVDVKYFAQEALTVLSLA
notes: as for B1

- binding result [3]: binds
B4: PP2Ac with internal deletion of five residues of the PP2Ac-tail (PP2AcΔ294–298) (enzyme, UniProt P67775 1-309, looked up)
chain: MDEKVFTKELDQWIEQLNECKQLSESQVKSLCEKAKEILTKESNVQEVRCPVTVCGDVHGQFHDLMELFRIGGKSPDTNYLFMGDYVDRGYYSVETVTLLVALKVRYRERITILRGNHESRQITQVYGFYDECLRKYGNANVWKYFTDLFDYLPLTALVDGQIFCLHGGLSPSIDTLDHIRALDRLQEVPHEGPMCDLLWSDPDDRGGWGISPRGAGYTFGQDISETFNHANGLTLVSRAHQLVMEGYNWCHDRNVVTIFSAPNYCYRCGNQAAIMELDDTLKYSFLQFDPAPHVTRRTPDYFL
notes: Probably made as the wild-type Cα-subunit (insect cells, His8 tag cleaved); also called shortened PP2Ac
